Data on 1 molecule can be found in publication PMC8329713, “The identification and structural analysis of potential 14-3-3 interaction sites on the bone regulator protein Schnurri-3” (Acta Crystallographica. Section F, Structural Biology …, 2021).

As usually defined, the Kd is the constant that tells how readily two partners part at equilibrium.

One assay has as its target T1, 14-3-3ɛ (full length) (human, UniProt P62258 1-255).
T1 chain: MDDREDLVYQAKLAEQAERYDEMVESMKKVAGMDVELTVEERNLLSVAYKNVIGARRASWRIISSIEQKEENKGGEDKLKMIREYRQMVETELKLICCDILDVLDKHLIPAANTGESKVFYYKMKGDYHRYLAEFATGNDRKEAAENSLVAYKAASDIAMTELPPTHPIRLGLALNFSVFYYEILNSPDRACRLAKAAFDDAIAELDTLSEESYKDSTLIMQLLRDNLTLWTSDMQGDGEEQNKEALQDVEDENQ
Description: FP.

Another assay concerns the target T2, 14-3-3β (full length) (human, UniProt P31946 1-246).
T2 chain: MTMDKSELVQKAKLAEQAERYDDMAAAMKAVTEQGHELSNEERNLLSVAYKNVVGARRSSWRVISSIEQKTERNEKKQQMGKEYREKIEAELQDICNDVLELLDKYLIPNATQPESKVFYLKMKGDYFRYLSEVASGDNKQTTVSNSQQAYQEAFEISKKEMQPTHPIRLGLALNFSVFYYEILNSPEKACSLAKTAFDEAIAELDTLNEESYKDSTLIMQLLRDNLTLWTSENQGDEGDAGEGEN
Description: FP.

In a further assay the target is T3, 14-3-3τ (full length) (human, UniProt P27348 1-245).
T3 chain: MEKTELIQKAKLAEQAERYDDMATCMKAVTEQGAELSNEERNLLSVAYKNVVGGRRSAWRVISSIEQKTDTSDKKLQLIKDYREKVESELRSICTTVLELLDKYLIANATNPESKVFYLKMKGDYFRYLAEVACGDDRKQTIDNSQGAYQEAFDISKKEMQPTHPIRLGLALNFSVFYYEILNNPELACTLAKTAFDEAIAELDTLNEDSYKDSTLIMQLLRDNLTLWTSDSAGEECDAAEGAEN
Description: FP.

A further assay deals with T4, 14-3-3ζ (full length) (human, UniProt P63104 1-245).
T4 chain: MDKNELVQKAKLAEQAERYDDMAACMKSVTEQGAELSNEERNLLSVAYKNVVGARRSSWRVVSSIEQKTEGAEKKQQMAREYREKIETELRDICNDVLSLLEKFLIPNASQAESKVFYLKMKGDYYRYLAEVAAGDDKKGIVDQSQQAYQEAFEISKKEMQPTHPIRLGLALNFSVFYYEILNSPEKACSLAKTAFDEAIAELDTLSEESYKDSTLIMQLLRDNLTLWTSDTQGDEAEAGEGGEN
Description: FP.

In the next assay the target is T5, 14-3-3σ (full length) (human, UniProt P31947 1-248).
T5 construct: 14-3-3 protein sigma, human, full length; Expressed from a pPRoeX-Htb vector; also called 14-3-3 isoform σ; the σ isoform; source: E. coli NiCo21(DE3), purified (nickel column, TEV cleavage, second nickel column, SEC)
T5 sequence (looked up): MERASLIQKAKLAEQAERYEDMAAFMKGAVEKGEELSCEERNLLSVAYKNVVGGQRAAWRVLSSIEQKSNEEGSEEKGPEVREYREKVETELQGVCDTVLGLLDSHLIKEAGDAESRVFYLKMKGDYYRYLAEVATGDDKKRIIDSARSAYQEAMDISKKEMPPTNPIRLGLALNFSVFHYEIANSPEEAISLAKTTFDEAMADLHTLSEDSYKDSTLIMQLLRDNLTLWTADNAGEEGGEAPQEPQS
Nature of the assay: fluorescence polarisation; 14-3-3 isoforms (full length) serially diluted twofold in the presence of 10 nM FITC-labelled peptide; 50 mM Tris pH 7.5, 150 mM NaCl, 5 mM MgCl2, 0.05% Tween-20 (no reducing agent listed); one-site specific binding model. The note with it: both partners purified. In general terms: Polarisation of emitted light reports the rotation of a fluorescent probe.

For another assay, the target named is T6, 14-3-3η (full length) (human, UniProt Q04917 1-246).
T6 construct: 14-3-3 protein eta, human, full length; Expressed from a pPRoeX-Htb vector; also called 14-3-3 isoform η; source: E. coli NiCo21(DE3), purified (nickel column, TEV cleavage, second nickel column, SEC)
T6 sequence (looked up): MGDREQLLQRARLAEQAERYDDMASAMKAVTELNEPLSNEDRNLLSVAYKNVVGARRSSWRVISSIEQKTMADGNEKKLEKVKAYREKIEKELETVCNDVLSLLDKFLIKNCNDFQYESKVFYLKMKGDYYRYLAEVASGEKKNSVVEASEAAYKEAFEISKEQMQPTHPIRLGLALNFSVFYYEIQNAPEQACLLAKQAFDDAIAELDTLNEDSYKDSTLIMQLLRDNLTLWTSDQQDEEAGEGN
The assay is described as above. The note with it: both partners purified.

Non-standard residues stand in square brackets, D forms with d. No end group written: not given here. *: point of attachment. FITC = O=C1OC2(c3ccc(O)cc3Oc3cc(O)ccc32)c2ccc(NC(=S)*)cc21; pS = N[C@@H](COP(=O)(O)O)C(=O)O; Ahx = NCCCCCC(=O)O

B1: SHN3pS542 peptide, N-terminally FITC-Ahx-labelled (peptide)
peptide: {FITC-Ahx}-LLRSH[pS]MPSAAC
modifications: also: phosphoserine at 542, position not mapped
notes: Schnurri-3 (SHN3, transcription factor HIVEP3), human, 12-mer around phosphorylated Ser542; also called SHN3pS542-FITC; the FITC-labelled form; source: synthetic peptide, bought: GenScript (purity >95%)
Regarding B1, the Kd amounted to 2.51 µM in the assay with 14-3-3ɛ (full length); 1.38 µM with 14-3-3β (full length); 1.91 µM in the assay with 14-3-3τ (full length); 2.14 µM with 14-3-3ζ (full length); 0.026 ± 0.002 µM in the assay with 14-3-3σ (full length); 0.69 ± 0.06 µM in the assay with 14-3-3η (full length).
